Measurements as given in patent US20210246204A1 (Alector, published 2021).
Positions count from the first letter of the chain named. Names may count otherwise. Read-outs that look alike come from different tables or passages of the source.

B1: S7AB-H8 (antibody, V domains shown)
VH: QVQLVQSGAEVKKPGASVKISCKASGYAFTNCWMNWVRQAPGQGLEWIGRIFPGNGHTNYAQKFQGRATLTEDTSTSTAYMELSSLRSEDTAVYYCARDYSDYYFDYWGQGTLVTVSS
VL: DIQMTQSPSSLSASVGDRVTITCRASQDINTYLNWYQQKPGKAPKLLIYYTSRLHSGVPSRFSGSGSGTDYTLTISSLQPEDFATYYCQQGNTLPWTFGQGTKLEIK
notes: also called parental humanized antibody
B2: S7AB-H8.44 huIgG1 SELF (antibody, V domains shown)
VH: B1 VH with I20V, N31A, C32A, N55L
VL: B1 VL with A25G, T93I
B3: S7AB-H8.44 huIgG2 (antibody, V domains shown)
VH: B1 VH with I20V, N31A, C32A, N55L
VL: B1 VL with A25G, T93I
B4: S7AB-H8.44 huIgG1 (antibody, V domains shown)
VH: B1 VH with I20V, N31A, C32A, N55L
VL: B1 VL with A25G, T93I
B5: S7AB-H8.44 huIgG1 N297A (antibody, V domains shown)
VH: B1 VH with I20V, N31A, C32A, N55L
VL: B1 VL with A25G, T93I
B6: S7AB-H8.44 huIgG1 LALAPS (antibody, V domains shown)
VH: B1 VH with I20V, N31A, C32A, N55L
VL: B1 VL with A25G, T93I
B7: S7AB-H11 (antibody, V domains shown)
VH: B1 VH with V114L
VL: B1 VL
B8: S7AB-H7 (antibody, V domains shown)
VH: B1 VH
VL: B1 VL with Y71F
B9: S7AB-H5 (antibody, V domains shown)
VH: B1 VH with I20V, A68V, L70M, A79V
VL: B1 VL
B10: S7AB-H12 (antibody, V domains shown)
VH: B1 VH with V114L
VL: B1 VL with I2V
B11: S7AB-H9 (antibody, V domains shown)
VH: B1 VH
VL: B1 VL with I2V
B12: S7AB-H6 (antibody, V domains shown)
VH: B1 VH with I20V, A68V, L70M, A79V
VL: B1 VL with I2V
B13: S7AB-H10 (antibody, V domains shown)
VH: B1 VH with V114L
VL: B1 VL with Y71F

Assays:
[1] = biological target: T1, histidine-tagged human Siglec-7 (NovoProtein) (human, UniProt Q9Y286 19-353); test: BLI (ForteBio), antibody captured
T1 construct: Bought protein; also called recombinant human Siglec-7; recombinant Siglec-7; not shown: histidine tag
T1 sequence (Q9Y286 19-353 limits assumed): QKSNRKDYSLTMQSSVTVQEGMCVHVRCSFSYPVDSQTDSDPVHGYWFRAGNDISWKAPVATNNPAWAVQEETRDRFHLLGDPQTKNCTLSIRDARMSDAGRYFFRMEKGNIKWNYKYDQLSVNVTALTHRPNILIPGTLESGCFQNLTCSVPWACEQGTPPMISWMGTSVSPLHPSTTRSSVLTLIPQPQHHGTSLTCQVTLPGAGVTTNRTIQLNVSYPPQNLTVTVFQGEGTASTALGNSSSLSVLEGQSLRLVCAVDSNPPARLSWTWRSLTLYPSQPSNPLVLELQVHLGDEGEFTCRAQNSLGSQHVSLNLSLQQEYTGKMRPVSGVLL
Experimental: (§1) In this assay, the humanized antibodies were compared directly to S7AB. Briefly, the antibodies were captured on anti-human or anti-mouse IgG Fc Biosensors (Pall ForteBio). Varying concentrations (0-100 nM) of histidine-tagged human Siglec-7 (NovoProtein) were then bound to the captured anti-Siglec-7 surface (200 s association time, 900 s dissociation time). Multi-concentration kinetic analysis was performed using a 1:1 interaction model to extract association and dissociation rate constants (kₐ and kd, respectively) for each antibody. Apparent affinity constants (KD) were calculated from the ratio kd/kₐ.

[2] = biological target: T2, human Siglec-7 on primary human monocyte-derived dendritic cells (human, UniProt Q9Y286 19-467); test: cell-based or functional assay
T2 sequence (Q9Y286 19-467): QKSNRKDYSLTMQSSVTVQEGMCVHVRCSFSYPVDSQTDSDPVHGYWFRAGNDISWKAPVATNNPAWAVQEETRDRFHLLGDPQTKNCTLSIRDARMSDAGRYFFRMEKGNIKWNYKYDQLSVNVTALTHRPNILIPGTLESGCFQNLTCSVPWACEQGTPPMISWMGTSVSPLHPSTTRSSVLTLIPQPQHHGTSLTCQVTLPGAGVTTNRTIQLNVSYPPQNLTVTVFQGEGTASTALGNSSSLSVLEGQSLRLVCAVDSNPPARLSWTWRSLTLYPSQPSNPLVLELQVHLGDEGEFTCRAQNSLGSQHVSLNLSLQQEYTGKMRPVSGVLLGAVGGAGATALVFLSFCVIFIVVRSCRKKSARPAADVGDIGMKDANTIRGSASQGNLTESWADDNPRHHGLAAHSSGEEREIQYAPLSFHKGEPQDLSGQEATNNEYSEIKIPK

[3] = biological target: T1, histidine-tagged human Siglec-7 …; test: BLI (ForteBio), antibody captured; Table 2 experiment; antibody captured on anti-IgG Fc Biosensors, 0-100 nM His-tagged Siglec-7
Experimental: as §1

[4] = biological target: T2, human Siglec-7 on primary human …; test: flow cytometry, primary human dendritic cells
Experimental: The 12 humanized antibodies of S7AB were evaluated for binding to primary dendritic cells by flow cytometry. Monocytes were isolated from blood from healthy human donors using the RosetteSep™ monocyte isolation antibody cocktail (StemCell Technologies). The isolated monocytes were differentiated into dendritic cells with 100 ng/mL GM-CSF and 100 ng/mL IL-4 (Peprotech). Dendritic cells were incubated with dilutions of the anti-Siglec-7 antibodies for 30 minutes on ice in the dark, followed by a 30-minute incubation with a fluorescently-conjugated anti-human IgG secondary antibody. Cells were washed twice in FACS buffer (PBS+2% FBS, 2 mM EDTA), and flow cytometry was performed on a BD FACS Canto. Data were analyzed using FlowJo software (Ashland, Oreg.).

[5] = biological target: T1, histidine-tagged human Siglec-7 …; test: BLI, antibody captured
Outline: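 Antibodies captured on anti-human or anti-mouse IgG Fc biosensors; His-tagged human Siglec-7 flowed at 0–100 nM (200 s association, 900 s dissociation). ka and kd from 1:1 multi-concentration fit; apparent KD = kd/ka.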

[6] = biological target: T2, human Siglec-7 on primary human …; test: cell-based or functional assay; remark: listed apart in the source
[7] = biological target: T2, human Siglec-7 on primary human …; test: cell-based or functional assay; remark: listed apart in the source

Binder | koff [1] | kon [1] | Receptor downregulation, (EC50) (pM) [2] | EC50 [4] | Maximal downregulation (% Siglec-7 remaining) [7] | Receptor downregulation, (pM, EC50) [7] | further results
B1 | 0.000125 s⁻¹ | 145000 M⁻¹ s⁻¹ | 395 pM | 1.5 nM |  |  | Kd [3]: 0.86 nM; Kd [5]: 1.05 nM; koff [5]: 0.000174 s⁻¹; kon [5]: 166000 M⁻¹ s⁻¹; Fold increase in potency compared to Chimeric Ab [6]: 3 fold; Maximal downregulation (% Siglec-7 remaining) [6]: 18.3%; Receptor downregulation, (EC50) (pM) [6]: 340 pM
B2 |  |  |  |  | < 0.1% | 9.1 pM | 
B3 |  |  |  |  | 2.8% | 43.8 pM | 
B4 |  |  |  |  | 1% | 33.6 pM | 
B5 |  |  |  |  | 2.9% | 68.6 pM | 
B6 |  |  |  |  | 2.8% | 67.3 pM | 
B7 | 0.000172 s⁻¹ | 160000 M⁻¹ s⁻¹ | 411 pM | 1.2 nM |  |  | Kd [1]: 1.07 nM
B8 |  |  |  | 3.3 nM |  |  | 
B9 |  |  |  | 1.1 nM |  |  | 
B10 | 0.000152 s⁻¹ | 150000 M⁻¹ s⁻¹ | 447 pM | 5.6 nM |  |  | Kd [1]: 1.01 nM
B11 | 0.000112 s⁻¹ | 150000 M⁻¹ s⁻¹ | 432 pM | 1.5 nM |  |  | Kd [1]: 0.74 nM
B12 |  |  |  | 1.6 nM |  |  | 
B13 |  |  |  | 6.3 nM |  |  | 
